Source: IntAct's records for PubMed 30567737

B1: 17S U2 SnRNP complex component HTATSF1 (Homo sapiens), O43719 (parent)
chain: MSGTNLDGNDEFDEQLRMQELYGDGKDGDTQTDAGGEPDSLGQQPTDTPYEWDLDKKAWFPKITEDFIATYQANYGFSNDGASSSTANVEDVHARTAEEPPQEKAPEPTDARKKGEKRKAESGWFHVEEDRNTNVYVSGLPPDITVDEFIQLMSKFGIIMRDPQTEEFKVKLYKDNQGNLKGDGLCCYLKRESVELALKLLDEDEIRGYKLHVEVAKFQLKGEYDASKKKKKCKDYKKKLSMQQKQLDWRPERRAGPSRMRHERVVIIKNMFHPMDFEDDPLVLNEIREDLRVECSKFGQIRKLLLFDRHPDGVASVSFRDPEEADYCIQTLDGRWFGGRQITAQAWDGTTDYQVEETSREREERLRGWEAFLNAPEANRGLRRSDSVSASERAGPSRARHFSEHPSTSKMNAQETATGMAFEEPIDEKKFEKTEDGGEFEEGASENNAKESSPEKEAEEGCPEKESEEGCPKRGFEGSCSQKESEEGNPVRGSEEDSPKKESKKKTLKNDCEENGLAKESEDDLNKESEEEVGPTKESEEDDSEKESDEDCSEKQSEDGSEREFEENGLEKDLDEEGSEKELHENVLDKELEENDSENSEFEDDGSEKVLDEEGSEREFDEDSDEKEEEEDTYEKVFDDESDEKEDEEYADEKGLEAADKKAEEGDADEKLFEESDDKEDEDADGKEVEDADEKLFEDDDSNEKLFDEEEDSSEKLFDDSDERGTLGGFGSVEEGPLSTGSSFILSSDDDDDDI

Variants of: B1
Conditions: with SF3B1, O75533-1
SF3B1, O75533-1, sequence (O75533 whole entry): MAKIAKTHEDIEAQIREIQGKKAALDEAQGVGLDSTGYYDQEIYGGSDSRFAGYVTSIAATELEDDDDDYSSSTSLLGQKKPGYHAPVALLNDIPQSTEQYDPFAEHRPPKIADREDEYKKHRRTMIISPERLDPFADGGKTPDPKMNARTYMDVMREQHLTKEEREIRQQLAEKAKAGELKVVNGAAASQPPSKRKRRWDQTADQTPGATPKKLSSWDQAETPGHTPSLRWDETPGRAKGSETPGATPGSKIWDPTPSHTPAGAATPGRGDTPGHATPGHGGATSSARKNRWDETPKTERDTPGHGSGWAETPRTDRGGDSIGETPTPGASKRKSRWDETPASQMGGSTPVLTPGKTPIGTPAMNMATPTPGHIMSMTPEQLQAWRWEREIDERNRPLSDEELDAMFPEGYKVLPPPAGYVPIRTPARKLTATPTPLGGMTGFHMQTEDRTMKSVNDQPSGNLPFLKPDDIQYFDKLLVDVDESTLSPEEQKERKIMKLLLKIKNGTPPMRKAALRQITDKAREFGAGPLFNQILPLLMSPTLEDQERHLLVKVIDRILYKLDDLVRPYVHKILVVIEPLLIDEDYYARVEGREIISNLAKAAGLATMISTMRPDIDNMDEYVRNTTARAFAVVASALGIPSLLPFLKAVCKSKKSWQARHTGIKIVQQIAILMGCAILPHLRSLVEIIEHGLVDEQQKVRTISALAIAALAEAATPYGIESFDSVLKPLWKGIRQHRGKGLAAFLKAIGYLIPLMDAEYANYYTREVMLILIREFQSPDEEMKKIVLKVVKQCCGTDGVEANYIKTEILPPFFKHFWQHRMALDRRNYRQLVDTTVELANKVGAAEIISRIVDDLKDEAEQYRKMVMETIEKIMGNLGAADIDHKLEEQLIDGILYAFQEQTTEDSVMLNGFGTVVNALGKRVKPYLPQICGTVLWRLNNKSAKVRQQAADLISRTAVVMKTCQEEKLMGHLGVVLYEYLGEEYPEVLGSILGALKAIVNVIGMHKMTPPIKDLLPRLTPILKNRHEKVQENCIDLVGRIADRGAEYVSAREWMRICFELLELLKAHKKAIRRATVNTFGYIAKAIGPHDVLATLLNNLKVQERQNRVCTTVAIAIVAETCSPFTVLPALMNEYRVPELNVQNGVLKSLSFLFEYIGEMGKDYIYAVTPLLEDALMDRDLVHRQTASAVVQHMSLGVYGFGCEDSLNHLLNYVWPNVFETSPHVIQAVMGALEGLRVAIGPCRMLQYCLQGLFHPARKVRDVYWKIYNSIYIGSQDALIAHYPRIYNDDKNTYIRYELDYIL
For E286K;F337A, the “effect of a mutation on the interaction” value was “disrupting interaction strength”.
For E286K;D290K, the “effect of a mutation on the interaction” value was “disrupting interaction strength”.
